Tests used:
Assay in all cases: cell-based or functional assay
[1] = target: HIV-1 92WR020 Env (HIV-1)
[2] = target: HIV-1 Env of isolate MG RM-C-025 (subtype C) (HIV-1)
[3] = target: HIV-1 MGRM-A-002 Env (HIV-1)
HIV-1 CMU02 Env (HIV-1) = target: HIV-1 CMU02 Env (HIV-1)
[4] = target: HIV-1 92TH021 Env (HIV-1)
[5] = target: HIV-1 MGRM-AG-002 Env (HIV-1)
[6] = target: HIV-1 92WR021 Env (HIV-1)
[7] = target: HIV-1 92UG037 Env (HIV-1)
[8] = target: HIV-1 92UG031 Env (HIV-1)
[9] = target: HIV-1 MGRM-A-006 Env (HIV-1)
[10] = target: HIV-1 MGRM-AE-001 Env (HIV-1)
[11] = target: HIV-1 MGRM-AG-012 Env (HIV-1)
[12] = target: HIV-1 94UG103 Env (HIV-1)
[13] = target: HIV-1 92WR009 Env (HIV-1)
[14] = target: HIV-1 MGRM-AG-008 Env (HIV-1)
[15] = target: HIV-1 MGRM-A-009 Env (HIV-1)
[16] = target: HIV-1 92WR024 Env (HIV-1)
[17] = target: HIV-1 MGRM-A-008 Env (HIV-1)
[18] = target: HIV-1 MGRM-AG-006 Env (HIV-1)
[19] = target: HIV-1 MGRM-AG-001 Env (HIV-1)
[20] = target: HIV-1 94KE105 Env (HIV-1)
[21] = target: HIV-1 MGRM-A-013 Env (HIV-1)
[22] = target: HIV-1 MGRM-A-011 Env (HIV-1)
[23] = target: HIV-1 Env of isolate MG RM-C-028 (subtype C) (HIV-1)
[24] = target: HIV-1 MGRM-AG-003 Env (HIV-1)
[25] = target: HIV-1 93WR029 Env (HIV-1)
[26] = target: HIV-1 Env of isolate MG RM-C-020 (subtype C) (HIV-1)
[27] = target: HIV-1 MGRM-A-010 Env (HIV-1)
HIV-1 VLGCA1 Env (HIV-1) = target: HIV-1 VLGCA1 Env (HIV-1)
[28] = target: HIV-1 92WR026 Env (HIV-1)
[29] = target: HIV-1 MGRM-AE-005 Env (HIV-1)
[30] = target: HIV-1 Env of isolate MG RM-C-027 (subtype C) (HIV-1)
[31] = target: HIV-1 MGRM-A-007 Env (HIV-1)
[32] = target: HIV-1 MGRM-A-001 Env (HIV-1)
[33] = target: HIV-1 MGRM-AE-003 Env (HIV-1)
[34] = target: HIV-1 MGRM-A-012 Env (HIV-1)
[35] = target: HIV-1 92RW008 Env (HIV-1)
[36] = target: HIV-1 MGRM-AE-007 Env (HIV-1)
[37] = target: HIV-1 MGRM-AE-002 Env (HIV-1)
[38] = target: HIV-1 Env of isolate MG RM-C-022 (subtype C) (HIV-1)
[39] = target: HIV-1 MGRM-AE-004 Env (HIV-1)
[40] = target: HIV-1 Env of isolate MG RM-C-024 (subtype C) (HIV-1)
[41] = target: HIV-1 Env of isolate MG RM-C-023 (subtype C) (HIV-1)
[42] = target: HIV-1 93UG077 Env (HIV-1)
[43] = target: HIV-1 Env of isolate MG RM-C-019 (subtype C) (HIV-1)
[44] = target: HIV-1 Env of isolate MG RM-C-026 (subtype C) (HIV-1)
[45] = target: HIV-1 MGRM-A-014 Env (HIV-1)
[46] = target: HIV-1 MGRM-AG-009 Env (HIV-1)
[47] = target: HIV-1 MGRM-A-003 Env (HIV-1)
[48] = target: HIV-1 MGRM-A-004 Env (HIV-1)
[49] = target: HIV-1 MGRM-AG-011 Env (HIV-1)
[50] = target: HIV-1 MGRM-AG-013 Env (HIV-1)
[51] = target: HIV-1 MGRM-AG-005 Env (HIV-1)
[52] = target: HIV-1 MGRM-A-005 Env (HIV-1)
[53] = target: HIV-1 MGRM-AE-008 Env (HIV-1)
[54] = target: HIV-1 MGRM-AE-006 Env (HIV-1)

5345_I01 (PGT-137) (antibody), sequence (VH): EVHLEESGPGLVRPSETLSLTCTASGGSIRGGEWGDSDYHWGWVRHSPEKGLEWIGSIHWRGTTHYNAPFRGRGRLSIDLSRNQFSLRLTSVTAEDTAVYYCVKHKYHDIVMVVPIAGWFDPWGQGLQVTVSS
5345_I01 (PGT-137) (antibody), sequence (VL): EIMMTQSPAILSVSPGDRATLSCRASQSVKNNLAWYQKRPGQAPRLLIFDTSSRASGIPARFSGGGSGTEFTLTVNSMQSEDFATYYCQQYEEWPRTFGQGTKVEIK

## 5343_B08 (PGT-135) (antibody)
[1]
  IC50: 0.067 µg/mL
[2]
  IC50: > 50 µg/mL
[3]
  IC50: > 50 µg/mL
HIV-1 CMU02 Env (HIV-1)
  IC50: > 50 µg/mL
[4]
  IC50: > 50 µg/mL
[5]
  IC50: > 50 µg/mL
[6]
  IC50: > 50 µg/mL
[7]
  IC50: 3.67 µg/mL
[8]
  IC50: > 50 µg/mL
[9]
  IC50: > 50 µg/mL
[10]
  IC50: > 50 µg/mL
[11]
  IC50: 41.9 µg/mL
[12]
  IC50: > 50 µg/mL
[13]
  IC50: > 50 µg/mL
[14]
  IC50: > 50 µg/mL
[15]
  IC50: > 50 µg/mL
[16]
  IC50: > 50 µg/mL
[17]
  IC50: > 50 µg/mL
[18]
  IC50: 17.9 µg/mL
[19]
  IC50: > 50 µg/mL
[20]
  IC50: 0.063 µg/mL
[21]
  IC50: > 50 µg/mL
[22]
  IC50: > 50 µg/mL
[23]
  IC50: 1.47 µg/mL
[24]
  IC50: > 50 µg/mL
[25]
  IC50: > 50 µg/mL
[26]
  IC50: > 50 µg/mL
[27]
  IC50: > 50 µg/mL
HIV-1 VLGCA1 Env (HIV-1)
  IC50: > 50 µg/mL
[28]
  IC50: 0.068 µg/mL
[29]
  IC50: > 50 µg/mL
[30]
  IC50: > 50 µg/mL
[31]
  IC50: > 50 µg/mL
[32]
  IC50: > 50 µg/mL
[33]
  IC50: > 50 µg/mL
[34]
  IC50: > 50 µg/mL
[35]
  IC50: 1.42 µg/mL
[36]
  IC50: > 50 µg/mL
[37]
  IC50: > 50 µg/mL
[38]
  IC50: > 50 µg/mL
[39]
  IC50: > 50 µg/mL
[40]
  IC50: > 50 µg/mL
[41]
  IC50: 0.061 µg/mL
[42]
  IC50: > 50 µg/mL
[43]
  IC50: 0.264 µg/mL
[44]
  IC50: 0.004 µg/mL
[45]
  IC50: 0.636 µg/mL
[46]
  IC50: > 50 µg/mL
[47]
  IC50: > 50 µg/mL
[48]
  IC50: > 50 µg/mL
[49]
  IC50: > 50 µg/mL
[50]
  IC50: > 50 µg/mL
[51]
  IC50: > 50 µg/mL
[52]
  IC50: > 50 µg/mL
[53]
  IC50: > 50 µg/mL
[54]
  IC50: > 50 µg/mL

## 5345_I01 (PGT-137) (antibody)
[1]
  IC50: 0.005 µg/mL
[2]
  IC50: > 50 µg/mL
[3]
  IC50: > 50 µg/mL
HIV-1 CMU02 Env (HIV-1)
  IC50: > 50 µg/mL
[4]
  IC50: > 50 µg/mL
[5]
  IC50: > 50 µg/mL
[6]
  IC50: 3.52 µg/mL
[7]
  IC50: > 50 µg/mL
[8]
  IC50: > 50 µg/mL
[9]
  IC50: > 50 µg/mL
[10]
  IC50: > 50 µg/mL
[11]
  IC50: > 50 µg/mL
[12]
  IC50: > 50 µg/mL
[13]
  IC50: > 50 µg/mL
[14]
  IC50: > 50 µg/mL
[15]
  IC50: > 50 µg/mL
[16]
  IC50: > 50 µg/mL
[17]
  IC50: > 50 µg/mL
[18]
  IC50: 28.3 µg/mL
[19]
  IC50: > 50 µg/mL
[20]
  IC50: 18.5 µg/mL
[21]
  IC50: 49.2 µg/mL
[22]
  IC50: > 50 µg/mL
[23]
  IC50: > 50 µg/mL
[24]
  IC50: > 50 µg/mL
[25]
  IC50: > 50 µg/mL
[26]
  IC50: > 50 µg/mL
[27]
  IC50: > 50 µg/mL
HIV-1 VLGCA1 Env (HIV-1)
  IC50: > 50 µg/mL
[28]
  IC50: 0.092 µg/mL
[29]
  IC50: > 50 µg/mL
[30]
  IC50: > 50 µg/mL
[31]
  IC50: > 50 µg/mL
[32]
  IC50: > 50 µg/mL
[33]
  IC50: > 50 µg/mL
[34]
  IC50: > 50 µg/mL
[35]
  IC50: 0.148 µg/mL
[36]
  IC50: > 50 µg/mL
[37]
  IC50: > 50 µg/mL
[38]
  IC50: > 50 µg/mL
[39]
  IC50: > 50 µg/mL
[40]
  IC50: > 50 µg/mL
[41]
  IC50: 0.23 µg/mL
[42]
  IC50: > 50 µg/mL
[43]
  IC50: > 50 µg/mL
[44]
  IC50: 0.011 µg/mL
[45]
  IC50: 18.6 µg/mL
[46]
  IC50: > 50 µg/mL
[47]
  IC50: > 50 µg/mL
[48]
  IC50: > 50 µg/mL
[49]
  IC50: > 50 µg/mL
[50]
  IC50: > 50 µg/mL
[51]
  IC50: > 50 µg/mL
[52]
  IC50: > 50 µg/mL
[53]
  IC50: > 50 µg/mL
[54]
  IC50: > 50 µg/mL

## 5136_H01 (PGT-131) (antibody)
[1]
  IC50: 0.168 µg/mL
[2]
  IC50: > 50 µg/mL
[3]
  IC50: > 50 µg/mL
HIV-1 CMU02 Env (HIV-1)
  IC50: > 50 µg/mL
[4]
  IC50: 0.014 µg/mL
[5]
  IC50: > 50 µg/mL
[6]
  IC50: 0.012 µg/mL
[7]
  IC50: 0.048 µg/mL
[8]
  IC50: > 50 µg/mL
[9]
  IC50: > 50 µg/mL
[10]
  IC50: 4.8 µg/mL
[11]
  IC50: > 50 µg/mL
[12]
  IC50: 1.1 µg/mL
[13]
  IC50: 3.12 µg/mL
[14]
  IC50: > 50 µg/mL
[15]
  IC50: 0.035 µg/mL
[16]
  IC50: > 50 µg/mL
[17]
  IC50: > 50 µg/mL
[18]
  IC50: 0.019 µg/mL
[19]
  IC50: > 50 µg/mL
[20]
  IC50: 0.013 µg/mL
[21]
  IC50: > 50 µg/mL
[22]
  IC50: > 50 µg/mL
[23]
  IC50: > 50 µg/mL
[24]
  IC50: 2.92 µg/mL
[25]
  IC50: > 50 µg/mL
[26]
  IC50: > 50 µg/mL
[27]
  IC50: 0.01 µg/mL
HIV-1 VLGCA1 Env (HIV-1)
  IC50: > 50 µg/mL
[28]
  IC50: 0.041 µg/mL
[29]
  IC50: 0.017 µg/mL
[30]
  IC50: 0.065 µg/mL
[31]
  IC50: > 50 µg/mL
[32]
  IC50: > 50 µg/mL
[33]
  IC50: 1.41 µg/mL
[34]
  IC50: > 50 µg/mL
[35]
  IC50: 1.01 µg/mL
[36]
  IC50: 0.026 µg/mL
[37]
  IC50: > 50 µg/mL
[38]
  IC50: 0.78 µg/mL
[39]
  IC50: > 50 µg/mL
[40]
  IC50: > 50 µg/mL
[41]
  IC50: 0.143 µg/mL
[42]
  IC50: > 50 µg/mL
[43]
  IC50: 0.021 µg/mL
[44]
  IC50: 1.67 µg/mL
[45]
  IC50: 15.4 µg/mL
[46]
  IC50: > 50 µg/mL
[47]
  IC50: > 50 µg/mL
[48]
  IC50: > 50 µg/mL
[49]
  IC50: > 50 µg/mL
[50]
  IC50: 0.03 µg/mL
[51]
  IC50: 1.04 µg/mL
[52]
  IC50: > 50 µg/mL
[53]
  IC50: > 50 µg/mL
[54]
  IC50: 0.026 µg/mL
